According to US20150344570A1 (published 2015):

Tests used:
[1] = target: T1, FcγRIIb extracellular domain with C-terminal His tag (human, UniProt P31994 43-217); experiment: SPR (Biacore), relative binding
T1 construct: extracellular domain; also called FcgRIIb; 2b
T1 sequence (looked up): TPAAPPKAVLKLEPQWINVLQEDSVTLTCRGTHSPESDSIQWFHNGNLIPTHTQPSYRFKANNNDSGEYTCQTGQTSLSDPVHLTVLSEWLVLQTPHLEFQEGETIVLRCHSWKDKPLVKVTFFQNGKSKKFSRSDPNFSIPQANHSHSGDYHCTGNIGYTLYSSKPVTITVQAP
Procedure: Analysis of interaction between objective antibody and the FcγR was carried out using Biacore T100 (GE Healthcare). HBS-EP+ (GE Healthcare) was used as the running buffer, and the measurement temperature was set to 25° C. Chips produced by immobilizing the antigen peptide by the amine coupling method to a Series S Sencor Chip CM5 (GE Healthcare), or alternatively, chips produced by allowing preliminarily biotinylated antigen peptides to interact with and immobilize onto a Series S Sensor Chip SA (certified) (GE Healthcare) were used. Antibodies of interest were captured onto an antigen peptide-immobilized chip, and allowed to interact to each FcγR diluted with running buffer. To regenerate and repeatedly use the chip, the antibodies captured on the chip were washed off by reacting 10 mM glycine-HCl, pH 1.5.

[2] = target: T2, FcγRIIa R (human, UniProt P12318 34-217); experiment: SPR (Biacore), captured antibody, FcγR as analyte; relative binding activity
T2 construct: extracellular domain; also called FcgRIIa R type; 2aR
T2 sequence (looked up): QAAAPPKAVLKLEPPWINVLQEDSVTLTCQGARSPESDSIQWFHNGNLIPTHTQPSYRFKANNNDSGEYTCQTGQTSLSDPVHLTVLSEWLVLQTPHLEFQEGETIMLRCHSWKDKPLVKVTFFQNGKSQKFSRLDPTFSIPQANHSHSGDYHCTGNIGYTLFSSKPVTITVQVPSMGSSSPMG

B1: GpH7-B3 variant G237_02A/GpL16-k0 (antibody, human IgG1, kappa)
heavy: not shown
light: DIVMTQSPLSLPVTPGEPASISCQASESLVHSNRNTYLHWYLQKPGQSPQLLIYKVSNRFSGVPDRFSGSGSGTDFTLKISRVEAEDVGVYYCSQNTHVPPTFGQGTKVEIERTVAAPSVFIFPPSDEQLKSGTASVVCLLNNFYPREAKVQWKVDNALQSGNSQESVTEQDSKDSTYSLSSTLTLSKADYEKHKVYACEVTHQGLSSPVTKSFNRGEC
notes: also called Ho Ab G237_02A
With B1 the Ho/Con_2b [1] was 47.8 % of HoCon Ab GpH7-B3/GpL16-k0.

B2: GpH7-B3 variant L234_09D/GpL16-k0 (antibody, human IgG1, kappa)
heavy: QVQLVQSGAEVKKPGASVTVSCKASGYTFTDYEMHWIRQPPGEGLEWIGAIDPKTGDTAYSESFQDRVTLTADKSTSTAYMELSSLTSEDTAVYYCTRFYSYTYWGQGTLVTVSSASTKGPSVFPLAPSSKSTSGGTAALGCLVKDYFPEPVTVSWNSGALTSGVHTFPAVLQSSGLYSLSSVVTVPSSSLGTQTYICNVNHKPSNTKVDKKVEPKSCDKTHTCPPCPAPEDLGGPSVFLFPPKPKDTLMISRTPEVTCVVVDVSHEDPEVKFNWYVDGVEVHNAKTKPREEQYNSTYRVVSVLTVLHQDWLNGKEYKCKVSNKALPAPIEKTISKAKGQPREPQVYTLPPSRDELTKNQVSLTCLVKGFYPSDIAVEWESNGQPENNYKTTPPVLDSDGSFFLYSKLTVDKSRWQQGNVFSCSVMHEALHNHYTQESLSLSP
light: B1 light
notes: also called Ho Ab L234_09D
B2 was tested, and the Ho/Con_2b [1] was 68.5 % of HoCon Ab GpH7-B3/GpL16-k0.

B3: GpH7-B3 variant G237_20W/GpL16-k0 (antibody, human IgG1, kappa)
heavy: not shown
light: B1 light
notes: also called Ho Ab G237_20W
B3 was tested, and the Ho/Con_2b [1] was 166 % of HoCon Ab GpH7-B3/GpL16-k0.

B4: GpH7-B3 variant N325_03V/GpL16-k0 (antibody, human IgG1, kappa)
heavy: not shown
light: B1 light
notes: also called Ho Ab N325_03V
In the case of B4, the Ho/Con_2b [1] is reported as 31.8 % of HoCon Ab GpH7-B3/GpL16-k0.

B5: GpH7-A5/GpH7-B3 variant P331_04F/GpL16-k0 (antibody, human IgG1, kappa)
heavy 1: not shown
heavy 2: not shown
light: B1 light
notes: also called He Ab P331_04F
B5 was tested, and the He/Con_2aR [2] was 111 % (GpH7-A5/GpH7-B3/GpL16-k0 = 100).

B6: GpH7-B3 variant L235_04F/GpL16-k0 (antibody, human IgG1, kappa)
heavy: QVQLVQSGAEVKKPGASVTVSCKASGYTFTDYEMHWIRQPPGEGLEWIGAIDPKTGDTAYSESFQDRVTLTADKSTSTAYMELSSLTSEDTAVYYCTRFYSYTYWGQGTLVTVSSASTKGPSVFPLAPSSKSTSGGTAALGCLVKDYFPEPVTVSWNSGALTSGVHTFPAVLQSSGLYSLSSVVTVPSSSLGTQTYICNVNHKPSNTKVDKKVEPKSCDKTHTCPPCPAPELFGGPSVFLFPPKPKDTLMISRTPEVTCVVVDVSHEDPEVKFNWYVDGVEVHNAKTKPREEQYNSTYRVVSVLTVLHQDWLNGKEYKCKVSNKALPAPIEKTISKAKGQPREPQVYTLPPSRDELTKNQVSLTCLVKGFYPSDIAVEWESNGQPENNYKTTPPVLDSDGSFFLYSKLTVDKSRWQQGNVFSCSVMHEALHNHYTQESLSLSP
light: B1 light
notes: also called Ho Ab L235_04F
With B6 the Ho/Con_2b [1] was 111 % of HoCon Ab GpH7-B3/GpL16-k0.

B7: GpH7-B3 variant L234_10E/GpL16-k0 (antibody, human IgG1, kappa)
heavy: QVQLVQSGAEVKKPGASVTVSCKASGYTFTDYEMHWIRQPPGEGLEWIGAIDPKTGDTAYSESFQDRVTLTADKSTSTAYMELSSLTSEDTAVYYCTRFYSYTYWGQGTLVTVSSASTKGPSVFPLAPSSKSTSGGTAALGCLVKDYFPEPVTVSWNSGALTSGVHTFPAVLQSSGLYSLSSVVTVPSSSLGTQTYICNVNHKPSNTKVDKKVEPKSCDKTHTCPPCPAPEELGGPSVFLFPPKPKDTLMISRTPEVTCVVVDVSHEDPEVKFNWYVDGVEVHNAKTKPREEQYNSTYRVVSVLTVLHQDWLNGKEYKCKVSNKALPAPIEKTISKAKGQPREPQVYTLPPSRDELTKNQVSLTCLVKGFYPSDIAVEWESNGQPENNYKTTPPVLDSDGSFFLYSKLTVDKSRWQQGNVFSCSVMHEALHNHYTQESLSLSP
light: B1 light
notes: also called Ho Ab L234_10E
B7 was tested, and the Ho/Con_2b [1] was 54.9 % of HoCon Ab GpH7-B3/GpL16-k0.

B8: GpH7-B3 variant L234_20W/GpL16-k0 (antibody, human IgG1, kappa)
heavy: not shown
light: B1 light
notes: also called Ho Ab L234_20W
With B8 the Ho/Con_2b [1] was 80.6 % of HoCon Ab GpH7-B3/GpL16-k0.

B9: GpH7-B3 variant I332_14T/GpL16-k0 (antibody, human IgG1, kappa)
heavy: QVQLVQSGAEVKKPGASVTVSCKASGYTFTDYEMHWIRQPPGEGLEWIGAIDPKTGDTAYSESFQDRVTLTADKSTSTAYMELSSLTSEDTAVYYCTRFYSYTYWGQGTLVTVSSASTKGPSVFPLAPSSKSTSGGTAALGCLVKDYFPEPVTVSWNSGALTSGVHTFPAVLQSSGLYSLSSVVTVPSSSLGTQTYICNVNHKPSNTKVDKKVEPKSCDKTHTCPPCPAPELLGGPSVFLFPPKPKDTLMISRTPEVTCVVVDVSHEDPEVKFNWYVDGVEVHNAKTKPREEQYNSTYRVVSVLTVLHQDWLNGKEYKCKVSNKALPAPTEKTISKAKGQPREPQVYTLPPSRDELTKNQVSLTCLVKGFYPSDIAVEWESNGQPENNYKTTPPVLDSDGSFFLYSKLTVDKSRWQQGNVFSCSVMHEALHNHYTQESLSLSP
light: B1 light
notes: also called Ho Ab I332_14T
With B9 the Ho/Con_2b [1] was 106 % of HoCon Ab GpH7-B3/GpL16-k0.

B10: GpH7-B3 variant G237_10E/GpL16-k0 (antibody, human IgG1, kappa)
heavy: not shown
light: B1 light
notes: also called Ho Ab G237_10E
In the case of B10, the Ho/Con_2b [1] is reported as 17.8 % of HoCon Ab GpH7-B3/GpL16-k0.

B11: GpH7-B3 variant A330_05P/GpL16-k0 (antibody, human IgG1, kappa)
heavy: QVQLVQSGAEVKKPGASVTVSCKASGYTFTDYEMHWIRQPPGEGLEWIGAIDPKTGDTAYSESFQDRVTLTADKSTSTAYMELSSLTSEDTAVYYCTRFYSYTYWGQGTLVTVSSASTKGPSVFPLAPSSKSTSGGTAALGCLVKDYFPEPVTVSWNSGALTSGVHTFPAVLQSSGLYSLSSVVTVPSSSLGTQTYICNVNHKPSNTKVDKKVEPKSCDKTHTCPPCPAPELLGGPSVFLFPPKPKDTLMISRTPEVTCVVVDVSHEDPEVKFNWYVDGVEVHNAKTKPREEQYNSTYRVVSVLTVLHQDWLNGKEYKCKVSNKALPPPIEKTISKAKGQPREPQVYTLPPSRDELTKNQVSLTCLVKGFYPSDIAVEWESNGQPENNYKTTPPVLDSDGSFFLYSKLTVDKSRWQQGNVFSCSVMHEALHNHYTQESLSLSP
light: B1 light
notes: also called Ho Ab A330_05P
In the case of B11, the Ho/Con_2b [1] is reported as 35.3 % of HoCon Ab GpH7-B3/GpL16-k0.

B12: GpH7-B3 variant A330_01G/GpL16-k0 (antibody, human IgG1, kappa)
heavy: not shown
light: B1 light
notes: also called Ho Ab A330_01G
In the case of B12, the Ho/Con_2b [1] is reported as 102 % of HoCon Ab GpH7-B3/GpL16-k0.

B13: GpH7-B3 variant N325_04F/GpL16-k0 (antibody, human IgG1, kappa)
heavy: not shown
light: B1 light
notes: also called Ho Ab N325_04F
B13 was tested, and the Ho/Con_2b [1] was 65.7 % of HoCon Ab GpH7-B3/GpL16-k0.

B14: GpH7-B3 variant A327_18N/GpL16-k0 (antibody, human IgG1, kappa)
heavy: not shown
light: B1 light
notes: also called Ho Ab A327_18N
B14 was tested, and the Ho/Con_2b [1] was 101 % of HoCon Ab GpH7-B3/GpL16-k0.

B15: GpH7-B3 variant I332_02A/GpL16-k0 (antibody, human IgG1, kappa)
heavy: not shown
light: B1 light
notes: also called Ho Ab I332_02A
In the case of B15, the Ho/Con_2b [1] is reported as 81.8 % of HoCon Ab GpH7-B3/GpL16-k0.

B16: GpH7-B3 variant A327_07I/GpL16-k0 (antibody, human IgG1, kappa)
heavy: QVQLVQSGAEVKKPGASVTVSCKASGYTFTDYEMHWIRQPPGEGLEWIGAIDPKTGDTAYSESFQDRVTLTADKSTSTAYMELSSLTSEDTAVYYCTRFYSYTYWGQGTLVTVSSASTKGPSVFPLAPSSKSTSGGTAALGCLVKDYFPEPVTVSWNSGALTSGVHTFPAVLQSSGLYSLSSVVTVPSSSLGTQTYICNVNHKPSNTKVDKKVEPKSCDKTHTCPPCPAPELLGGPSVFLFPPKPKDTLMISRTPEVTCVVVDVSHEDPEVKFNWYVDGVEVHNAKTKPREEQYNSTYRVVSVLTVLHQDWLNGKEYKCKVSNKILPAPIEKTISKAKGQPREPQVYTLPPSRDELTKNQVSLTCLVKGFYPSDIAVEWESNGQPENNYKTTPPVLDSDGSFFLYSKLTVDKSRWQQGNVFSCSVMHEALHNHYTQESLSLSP
light: B1 light
notes: also called Ho Ab A327_07I
With B16 the Ho/Con_2b [1] was 37.6 % of HoCon Ab GpH7-B3/GpL16-k0.

B17: GpH7-B3 variant G237_15Y/GpL16-k0 (antibody, human IgG1, kappa)
heavy: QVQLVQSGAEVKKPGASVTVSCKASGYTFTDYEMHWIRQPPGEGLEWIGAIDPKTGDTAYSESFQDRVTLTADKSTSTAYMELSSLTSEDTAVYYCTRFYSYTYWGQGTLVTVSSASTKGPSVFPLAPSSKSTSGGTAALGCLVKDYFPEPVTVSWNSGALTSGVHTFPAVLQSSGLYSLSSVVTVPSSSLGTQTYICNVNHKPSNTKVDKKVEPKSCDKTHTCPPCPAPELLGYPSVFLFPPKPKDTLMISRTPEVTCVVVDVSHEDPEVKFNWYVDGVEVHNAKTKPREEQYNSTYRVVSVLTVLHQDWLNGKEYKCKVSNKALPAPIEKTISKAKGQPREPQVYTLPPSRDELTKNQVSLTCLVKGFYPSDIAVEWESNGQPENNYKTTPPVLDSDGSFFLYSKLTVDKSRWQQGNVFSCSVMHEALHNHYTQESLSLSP
light: B1 light
notes: also called Ho Ab G237_15Y
In the case of B17, the Ho/Con_2b [1] is reported as 83.1 % of HoCon Ab GpH7-B3/GpL16-k0.

B18: GpH7-B3 variant H268_05P/GpL16-k0 (antibody, human IgG1, kappa)
heavy: not shown
light: B1 light
notes: also called Ho Ab H268_05P
In the case of B18, the Ho/Con_2b [1] is reported as 109 % of HoCon Ab GpH7-B3/GpL16-k0.

B19: GpH7-B3 variant L328_02A/GpL16-k0 (antibody, human IgG1, kappa)
heavy: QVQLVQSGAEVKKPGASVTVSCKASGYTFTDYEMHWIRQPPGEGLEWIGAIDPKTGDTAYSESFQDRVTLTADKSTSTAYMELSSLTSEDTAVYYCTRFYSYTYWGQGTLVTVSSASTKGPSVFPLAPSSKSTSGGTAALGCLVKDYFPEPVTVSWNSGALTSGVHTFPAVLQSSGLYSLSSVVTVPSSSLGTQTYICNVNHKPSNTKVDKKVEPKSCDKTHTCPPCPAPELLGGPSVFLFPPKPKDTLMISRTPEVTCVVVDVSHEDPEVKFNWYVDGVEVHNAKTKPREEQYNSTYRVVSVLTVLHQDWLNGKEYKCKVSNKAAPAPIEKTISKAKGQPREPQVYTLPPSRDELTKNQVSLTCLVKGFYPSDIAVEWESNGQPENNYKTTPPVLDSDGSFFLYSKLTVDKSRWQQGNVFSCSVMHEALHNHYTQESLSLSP
light: B1 light
notes: also called Ho Ab L328_02A
In the case of B19, the Ho/Con_2b [1] is reported as 117 % of HoCon Ab GpH7-B3/GpL16-k0.

B20: GpH7-B3 variant N325_20W/GpL16-k0 (antibody, human IgG1, kappa)
heavy: not shown
light: B1 light
notes: also called Ho Ab N325_20W
B20 was tested, and the Ho/Con_2b [1] was 44 % of HoCon Ab GpH7-B3/GpL16-k0.

B21: GpH7-B3 variant G237_13S/GpL16-k0 (antibody, human IgG1, kappa)
heavy: not shown
light: B1 light
notes: also called Ho Ab G237_13S
For B21, the Ho/Con_2b [1] was 25.7 % of HoCon Ab GpH7-B3/GpL16-k0.

B22: GpH7-B3 variant G237_06M/GpL16-k0 (antibody, human IgG1, kappa)
heavy: not shown
light: B1 light
notes: also called Ho Ab G237_06M
B22 was tested, and the Ho/Con_2b [1] was 35.3 % of HoCon Ab GpH7-B3/GpL16-k0.

B23: GpH7-B3 variant G237_19Q/GpL16-k0 (antibody, human IgG1, kappa)
heavy: not shown
light: B1 light
notes: also called Ho Ab G237_19Q
With B23 the Ho/Con_2b [1] was 5.3 % of HoCon Ab GpH7-B3/GpL16-k0.

B24: GpH7-B3 variant K326_08L/GpL16-k0 (antibody, human IgG1, kappa)
heavy: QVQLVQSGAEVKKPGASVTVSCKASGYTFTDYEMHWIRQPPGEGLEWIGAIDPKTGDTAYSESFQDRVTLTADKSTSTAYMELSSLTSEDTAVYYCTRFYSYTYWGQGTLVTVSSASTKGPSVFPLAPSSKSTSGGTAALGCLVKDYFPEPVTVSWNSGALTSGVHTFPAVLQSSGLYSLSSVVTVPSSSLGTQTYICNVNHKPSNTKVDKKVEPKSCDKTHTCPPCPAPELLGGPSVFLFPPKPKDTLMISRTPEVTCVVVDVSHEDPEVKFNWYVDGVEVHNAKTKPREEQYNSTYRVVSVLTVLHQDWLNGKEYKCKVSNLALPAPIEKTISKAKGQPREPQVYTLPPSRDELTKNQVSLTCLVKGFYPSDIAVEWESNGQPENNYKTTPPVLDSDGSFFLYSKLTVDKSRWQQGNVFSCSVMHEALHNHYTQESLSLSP
light: B1 light
notes: also called Ho Ab K326_08L
In the case of B24, the Ho/Con_2b [1] is reported as 168 % of HoCon Ab GpH7-B3/GpL16-k0.

B25: GpH7-B3 variant G237_09D/GpL16-k0 (antibody, human IgG1, kappa)
heavy: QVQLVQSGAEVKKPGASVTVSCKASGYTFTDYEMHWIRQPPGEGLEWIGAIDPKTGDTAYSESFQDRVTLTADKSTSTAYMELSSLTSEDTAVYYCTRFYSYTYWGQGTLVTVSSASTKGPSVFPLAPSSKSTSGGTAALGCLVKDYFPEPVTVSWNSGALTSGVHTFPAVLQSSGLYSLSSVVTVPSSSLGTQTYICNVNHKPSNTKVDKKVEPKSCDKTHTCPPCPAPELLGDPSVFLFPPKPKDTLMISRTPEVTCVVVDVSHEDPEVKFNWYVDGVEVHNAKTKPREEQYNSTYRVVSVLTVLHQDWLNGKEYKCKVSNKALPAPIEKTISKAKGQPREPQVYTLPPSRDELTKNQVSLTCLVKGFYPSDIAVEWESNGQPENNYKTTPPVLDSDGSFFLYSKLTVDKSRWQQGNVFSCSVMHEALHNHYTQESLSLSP
light: B1 light
notes: also called Ho Ab G237_09D
With B25 the Ho/Con_2b [1] was 92.9 % of HoCon Ab GpH7-B3/GpL16-k0.

B26: GpH7-B3 variant I336_08L/GpL16-k0 (antibody, human IgG1, kappa)
heavy: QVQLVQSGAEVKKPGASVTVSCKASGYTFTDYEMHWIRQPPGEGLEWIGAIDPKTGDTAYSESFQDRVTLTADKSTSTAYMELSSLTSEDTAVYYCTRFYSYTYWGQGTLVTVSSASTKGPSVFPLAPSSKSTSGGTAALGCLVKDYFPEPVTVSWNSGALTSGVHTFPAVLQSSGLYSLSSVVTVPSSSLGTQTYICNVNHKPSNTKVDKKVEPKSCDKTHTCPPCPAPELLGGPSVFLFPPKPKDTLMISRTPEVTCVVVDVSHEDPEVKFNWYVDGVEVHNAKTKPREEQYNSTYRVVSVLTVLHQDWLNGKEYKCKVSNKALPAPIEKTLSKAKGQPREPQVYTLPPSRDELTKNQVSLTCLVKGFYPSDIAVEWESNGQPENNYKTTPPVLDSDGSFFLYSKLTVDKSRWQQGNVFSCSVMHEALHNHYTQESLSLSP
light: B1 light
notes: also called Ho Ab I336_08L
With B26 the Ho/Con_2b [1] was 103 % of HoCon Ab GpH7-B3/GpL16-k0.

B27: GpH7-B3 variant I336_06M/GpL16-k0 (antibody, human IgG1, kappa)
heavy: not shown
light: B1 light
notes: also called Ho Ab I336_06M
B27 was tested, and the Ho/Con_2b [1] was 90.1 % of HoCon Ab GpH7-B3/GpL16-k0.
